Laboratory results: US20220298231A1 (AC IMMUNE, published 2022)
Changes are numbered by the printed parent chain. Where no end group is shown, it is not given here. The star is where a group is joined. Biotin = O=C1N[C@H]2[C@H](CS[C@H]2CCCCC(=O)*)N1; Ahx = NCCCCCC(=O)O

What was measured:
91-105aa [1] = target: T1, 91-105aa; experiment: indirect ELISA on biotinylated 15-mer peptide (streptavidin plate), supernatant 1/100
T1 construct: also called alpha-synuclein peptide 91-105
T1 peptide: {Biotin-Ahx}-ATGFVKKDQLGKNEE
Method: (§1) Epitope mapping for the antibodies derived from stable hybridoma clones was determined using an indirect ELISA on a library of 15-mer peptides covering the entire sequence of human alpha-synuclein from 1 to 140aa. […] Results are expressed as optical density (O.D.). Each bar represents data for an individual antibody.
(§2) Serum-free supernatants were harvested from stable hybridomas. The supernatants containing antibodies of interest were then screened by an indirect ELISA assay to determine epitopes. Epitopes were first determined using a library of 15-mer peptides covering the entire sequence of human alpha-synuclein protein, spanning amino acids (aa) 1-140 with 9aa offset and 6aa overlap. […] Briefly, streptavidin-coated ELISA plates were blocked overnight at 4° C. […] Plates were washed with PBS/0.05% Tween® 20 and then incubated with the hybridoma supernatants at 1/100 dilution for 1 hour at 25° C. […] After final wash, plates were incubated 2 hours at 25° C. with alkaline phosphatase substrate (p-nitrophenyl phosphate disodium hexahydrate; pNPP, S0942, Sigma) and read the absorbance optical density (O.D.) signal at 405 nm using an ELISA plate reader (Tecan, Switzerland).

82-96aa [2] = target: T2, 82-96aa; experiment: 15-mer peptide ELISA
T2 construct: also called alpha-synuclein peptide 82-96
T2 peptide: {Biotin-Ahx}-VEGAGSIAAATGFVK
Method: as §1, §2

109-123aa = target: T3, 109-123aa; experiment: 15-mer peptide ELISA;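 further: indirect ELISA of hybridoma supernatant antibodies (1/100, 1 h) binding immobilized 15-mer peptides spanning human alpha-synuclein 1-140 on streptavidin plates, read as optical density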
T3 peptide: {Biotin-Ahx}-QEGILEDMPVDPDNE
Method: as §1, §2

100-114aa = target: T4, 100-114aa; experiment: 15-mer peptide ELISA;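 further: indirect ELISA of hybridoma supernatant antibodies (1/100, 1 h) binding immobilized 15-mer peptides spanning human alpha-synuclein 1-140 on streptavidin plates, read as optical density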
T4 peptide: {Biotin-Ahx}-LGKNEEGAPQEGILE
Method: as §1, §2

1-15aa [3] = target: T5, 1-15aa; experiment: 15-mer peptide ELISA
T5 construct: also called alpha-synuclein peptide 1-15
T5 peptide: {Biotin-Ahx}-MDVFMKGLSKAKEGV
Method: as §1, §2

37-51aa [4] = target: T6, 37-51aa; experiment: 15-mer peptide ELISA
T6 construct: also called alpha-synuclein peptide 37-51
T6 peptide: {Biotin-Ahx}-VLYVGSKTKEGVVHG
Method: as §1, §2

91-105aa [5] = target: T1, 91-105aa; experiment: indirect ELISA on biotinylated 15-mer peptide (streptavidin plate), supernatant 1/100
Method: as §1, §2

82-96aa [6] = target: T2, 82-96aa; experiment: 15-mer peptide ELISA
Method: as §1, §2

1-15aa [7] = target: T5, 1-15aa; experiment: indirect ELISA on biotinylated 15-mer peptide (streptavidin plate), supernatant 1/100
Method: as §1, §2

28-42aa [8] = experiment: 15-mer peptide ELISA
Method: as §1, §2

alpha-synuclein fibrils = alpha-synuclein fibrils (Homo sapiens (Human), UniProt P37840 1-140); experiment: SPR, mAb captured
Method: (§3) Immobilization levels were evaluated following ethanolamine capping (Bound) and finally following regeneration (Final). Non-covalent immobilization of alpha-synuclein antibodies was performed using a target immobilization method of 2000 response units (RU).
(§4) Binding affinity of alpha-synuclein antibodies to monomeric or fibrillar alpha-synuclein species was performed using a single-cycle kinetics method. […] A dissociation phase of 900 sec followed the final 50 nM injection. Regeneration of the sensor to the goat anti-mouse antibody layer was achieved using 3 regenerations of 10 mM Glycine pH 1.7. […] Regeneration of the sensor to the goat anti-mouse antibody layer was achieved using 3 regenerations of 10 mM Glycine pH 1.7. Results obtained from single-cycle kinetics were evaluated by Biacore T200 evaluation software with 1:1 binding homogenous Langmuir model (with a global Rmax) with Cycle 5 as a blank subtraction. The following kinetic parameters were obtained: on-rate (ka), off-rate (kd), affinity constant (KD, ratio of kd by ka), maximum response (Rmax), and goodness of fit (Chi2).
(§5) Non-covalent capture of the alpha-synuclein antibodies was performed in three separate runs.

[9] = target: human full-length alpha-synuclein (human, UniProt P37840 1-140); experiment: SPR, mAb captured
Method: as §3, §4, §5

91-105aa [10] = target: T1, 91-105aa; experiment: 15-mer peptide ELISA
Method: as §1, §2

28-42aa [11] = experiment: indirect ELISA on biotinylated 15-mer peptide (streptavidin plate), supernatant 1/100
Method: as §1, §2

37-51aa [12] = target: T6, 37-51aa; experiment: as above
Method: as §1, §2

82-96aa [13] = target: T2, 82-96aa; experiment: as above
Method: as §1, §2

B1: ACI-8033-4F3-Ab1 (antibody, V domains shown)
VH: EVQLQQSGPELVKPGASVKISCKASGYTFTDYYMNWVKQSHGKSLEWIGDINPNTGTNSYNQKFKGRASLTVDKFSSAAYMELRSLTSEDSAVYYCARTGYGDPISSYYYALDYWGQGTSVTVSS
VL: DIVMSQSPSSLAVSAGEKVTMSCKSSQSLLNSRTRKNYLAWYQQKPGQSPKLLIYWASTRESGVPDRFTGSGSGTDFTLTISSVQAEDLAVYYCKQSYNLWTFGGGTKLEIK
notes: mouse hybridoma mAb; also called 917.4F3F4G6
**Q.** Does B1 bind (91-105aa [1])?
**A.** binds

**Q.** Does B1 bind (82-96aa [2])?
**A.** no binding (tested: supernatant 1/100)

**Q.** Does B1 bind (109-123aa)?
**A.** no binding (tested: supernatant 1/100)

**Q.** Does B1 bind (100-114aa)?
**A.** no binding (tested: supernatant 1/100)

B2: ACI-7088-4301H3-Ab2 (antibody, V domains shown)
VH: EVQLQQSGPELVKPGASVKISCKASGYTFADYFMNWVKQSHGKSLEWIGDINPNNGGTTYNQKFKGKATLTVDKSSNTAYMELRSLTSEDSAVYYCARGRNYAMDYWGQGTSVTVSS
VL: B1 VL with W56S, S73F, N99D
notes: mouse hybridoma mAb; also called 4301H3A5
**Q.** Does B2 bind (1-15aa [3])?
**A.** no binding (tested: supernatant 1/100)

**Q.** Does B2 bind (37-51aa [4])?
**A.** no binding (tested: supernatant 1/100)

**Q.** Does B2 bind (91-105aa [5])?
**A.** binds

**Q.** Does B2 bind (82-96aa [6])?
**A.** no binding (tested: supernatant 1/100)

B3: ACI-8033-17F5-Ab1 (antibody, V domains shown)
VH: B2 VH with A30T, N55I, G56D, G57V, T59N, N77S, N101D, Y106F
VL: B1 VL with N99D
notes: mouse hybridoma mAb; also called 917.17F5F5G9
**Q.** Does B3 bind (91-105aa [1])?
**A.** binds

**Q.** Does B3 bind (82-96aa [2])?
**A.** no binding (tested: supernatant 1/100)

**Q.** Does B3 bind (109-123aa)?
**A.** no binding (tested: supernatant 1/100)

**Q.** Does B3 bind (100-114aa)?
**A.** no binding (tested: supernatant 1/100)

B4: ACI-7088-4305H7-Ab1 (antibody, V domains shown)
VH: EVQLQQSGAELVRPGASVKLSCTASGFNIKDDYMHWVKQRPEQGLEWIGWIDPENGDTEYASKFQGKATMIADTSSNTAYLQLSSLTSEDTAVYYCKTWGTTQALFPYWGQGTLVTVSS
VL: DIVMTQSQKFMSTSVGDRVSITCKASQNVGTAVGWYQQKAGQSPKLLIHSASNRYTGVPDRFTGSGSGTDFTLTINNMQSEDLADYFCQQYRSYPLTFGAGTKLELK
notes: mouse hybridoma mAb; also called 4305H7A4
**Q.** Which results are given for B4?
**A.** binding result (37-51aa [4]): no binding (tested: supernatant 1/100); binding result (91-105aa [5]): binds; binding result (82-96aa [6]): no binding (tested: supernatant 1/100); binding result (1-15aa [7]): binds

B5: ACI-7088-4303B6-Ab2 (antibody, V domains shown)
VH: EVQLQQSGPELVKPGASVKISCKASGYTFTDYYMNWVKQSHGKSLEWIGDINPNNGGTTYNQKFKDKATLTVDRSSSTAYMELRSLTSGDSAVYYCARSGYSGSRLYYAMDYWSQGSSVTVSS
VL: B1 VL with G16R, Y55F, N99D
notes: mouse hybridoma mAb; tied by the hybridoma code 4303B6C11; also called ACI-7088-4303B6-Ab1; 4303B6C11
**Q.** Does B5 bind (28-42aa [8])?
**A.** no binding (tested: supernatant 1/100)

**Q.** Does B5 bind (37-51aa [4])?
**A.** no binding (tested: supernatant 1/100)

**Q.** What about the Kd (alpha-synuclein fibrils) of the same binder?
**A.** 9.5 nM

**Q.** What about the koff (alpha-synuclein fibrils) of the same binder?
**A.** 0.00013 s⁻¹

**Q.** What about the kon (alpha-synuclein fibrils) of the same binder?
**A.** 13700 M⁻¹ s⁻¹

**Q.** What about the Kd [9] of the same binder?
**A.** 78.5 nM

**Q.** What about the koff [9] of the same binder?
**A.** 0.106 s⁻¹

**Q.** What about the kon [9] of the same binder?
**A.** 1.35e+06 M⁻¹ s⁻¹

**Q.** Does B5 bind (82-96aa [6])?
**A.** no binding (tested: supernatant 1/100)

**Q.** Does B5 bind (91-105aa [10])?
**A.** no binding (tested: supernatant 1/100)

**Q.** Does B5 bind (1-15aa [7])?
**A.** binds

B6: ACI-7087-4119E10-Ab2 (antibody, V domains shown)
VH: QVQLQQSGAELVRPGASVTLSCKASGYTFSDYEMNWVKQTPVHGLEWIGAIDPETGGTAYNQKFKGKAILTSDKSSSTAYMELRSLTSEDSAVYYCTRFLLIDFDYWGQGTTLTVSS
VL: DVLMTQTPLSLPVSLGDQASISCRSSQSIVHSNGNTYLEWYLKKAGQSPKVLIYKVSNRFSGVPDRFSGSGSGTDFTLKISRVEAEDLGVYYCFQGSHVPYTFGGGTELEIK
notes: mouse hybridoma mAb; also called 4119E10D12
**Q.** What does the source list for B6?
**A.** binding result (1-15aa [3]): no binding (tested: supernatant 1/100); binding result (82-96aa [6]): no binding (tested: supernatant 1/100); binding result (91-105aa [10]): no binding (tested: supernatant 1/100); binding result (28-42aa [11]): binds; binding result (37-51aa [12]): binds

B7: ACI-7088-4301D5-Ab2 (antibody, V domains shown)
VH: QVQLQQSGPELVRPGASVKISCKASGYRFTSYYIHWVKQRPGQGLEWIGWIYPGSDNTKHNDKFKGKATLTADTSSSTAYMQLSSLTSEDSAVYFCARDYDVGFGYWGQGTLVTVSS
VL: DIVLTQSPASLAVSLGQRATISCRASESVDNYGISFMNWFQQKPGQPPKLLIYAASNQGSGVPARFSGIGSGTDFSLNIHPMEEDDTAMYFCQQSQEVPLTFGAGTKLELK
notes: mouse hybridoma mAb; also called 4301D5B10
**Q.** Does B7 bind (1-15aa [3])?
**A.** no binding (tested: supernatant 1/100)

**Q.** Does B7 bind (82-96aa [6])?
**A.** no binding (tested: supernatant 1/100)

**Q.** Does B7 bind (91-105aa [10])?
**A.** no binding (tested: supernatant 1/100)

**Q.** Does B7 bind (28-42aa [11])?
**A.** binds

**Q.** Does B7 bind (37-51aa [12])?
**A.** binds

B8: ACI-7088-4303H6-Ab1 (antibody, V domains shown)
VH: EVQLQQSGAELVRPGASVKLSCTASGFNIQDDYMHWVKQRPEQGLEWIGWIDPENGDTEYASKFQGKATLTADTSSNTAYLQLSRLTSEDTAVYYCTTAGSGVQLFDYWGQGTTLTVSA
VL: DILMTQSQKFMSTSVGDRVSVTCKASQNVGTNVAWYQQKPGQSPKPLISSASSRYSGVPDRFTGSGSGTDFTLTISNVQSEDLADYFCQQYNRYPLTFGAGTKLELK
notes: mouse hybridoma mAb; tied by the hybridoma code 4303H6D7; also called 4303H6D7
**Q.** Which results are given for B8?
**A.** binding result (1-15aa [3]): no binding (tested: supernatant 1/100); binding result (37-51aa [4]): no binding (tested: supernatant 1/100); binding result (91-105aa [5]): binds; binding result (82-96aa [6]): no binding (tested: supernatant 1/100)

B9: ACI-8033-8C10-Ab1 (antibody, V domains shown)
VH: DVQLQESGPGLVKPSQSLSLTCSVTGQSITSGYYWNWIRQFPGNKLEWMGYISNDGSSKTNPSLTNRISVTRDTSKNQVFLKLKSVTTEDTATYYCVRGDQHWGQGTALTVSS
VL: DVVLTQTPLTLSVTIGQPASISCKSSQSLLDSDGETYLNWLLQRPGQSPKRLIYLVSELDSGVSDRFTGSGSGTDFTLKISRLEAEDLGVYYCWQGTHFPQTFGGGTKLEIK
notes: mouse hybridoma mAb; also called 917.8C10C6G3
**Q.** Does B9 bind (82-96aa [13])?
**A.** binds

**Q.** Does B9 bind (109-123aa)?
**A.** no binding (tested: supernatant 1/100)

**Q.** Does B9 bind (100-114aa)?
**A.** no binding (tested: supernatant 1/100)

B10: ACI-7089-4417G6-Ab1 (antibody, V domains shown)
VH: QVQLQQSGAELVRPGASVTLSCKASGYTFTGYEMHWVKQTPVHGLEWIGAIDPETGGTAYIQKFKGKATLTADKSSSTAYMELRSLTSEDSAVYYCTRGWDYFDYWGQGTTLTVSA
VL: DVVMTQTPLSLPVSLGDQASISCRSSQSLLHSNGFTYLHWYLQKPGQSPKLLIYRVSNRFSGVPDRFSGSGSGTDFTLKISRVEAEDLGVYFCSQSTHVPYTFGGGTKLEIK
notes: mouse hybridoma mAb; also called 4417G6B12
**Q.** Does B10 bind (1-15aa [3])?
**A.** no binding (tested: supernatant 1/100)

**Q.** Does B10 bind (28-42aa [8])?
**A.** no binding (tested: supernatant 1/100)

**Q.** And the Kd (alpha-synuclein fibrils)?
**A.** 48.7 nM

**Q.** And the koff (alpha-synuclein fibrils)?
**A.** 0.00874 s⁻¹

**Q.** What about the kon (alpha-synuclein fibrils) of the same binder?
**A.** 179000 M⁻¹ s⁻¹

**Q.** And the Kd [9]?
**A.** 22.6 nM

**Q.** And the koff [9]?
**A.** 5.58 s⁻¹

**Q.** What about the kon [9] of the same binder?
**A.** 2.47e+08 M⁻¹ s⁻¹

**Q.** Does B10 bind (82-96aa [6])?
**A.** no binding (tested: supernatant 1/100)

**Q.** Does B10 bind (91-105aa [10])?
**A.** no binding (tested: supernatant 1/100)
